We go through four molecules from paper PMC4051164, “Multiple transcription factors directly regulate Hox gene lin-39 expression in ventral hypodermal cells of the C. elegans embryo and larva, including the hypodermal fate regulators LIN-26 and ELT-6”.

The target in one series is ALR-1 (Caenorhabditis elegans, UniProt Q21836 1-362). Briefly: EMSA; self competes; 50 mM KCl, 20 mM HEPES pH 7.9, 0.2 mM EDTA, 0.5 mM DTT, 3 mM MgCl2, 1 ug poly(dI-dC), 0.5 ug/ul BSA, 0-800 ng protein, 20 ul, 20 min on ice (4 C). The note with it: protein: recombinant; tags: N-terminal 6His (pQE-80L); label: 32P; blunt. (A gel shift assay detects complexes by their altered migration in electrophoresis.)
ALR-1, sequence (Q21836 whole entry): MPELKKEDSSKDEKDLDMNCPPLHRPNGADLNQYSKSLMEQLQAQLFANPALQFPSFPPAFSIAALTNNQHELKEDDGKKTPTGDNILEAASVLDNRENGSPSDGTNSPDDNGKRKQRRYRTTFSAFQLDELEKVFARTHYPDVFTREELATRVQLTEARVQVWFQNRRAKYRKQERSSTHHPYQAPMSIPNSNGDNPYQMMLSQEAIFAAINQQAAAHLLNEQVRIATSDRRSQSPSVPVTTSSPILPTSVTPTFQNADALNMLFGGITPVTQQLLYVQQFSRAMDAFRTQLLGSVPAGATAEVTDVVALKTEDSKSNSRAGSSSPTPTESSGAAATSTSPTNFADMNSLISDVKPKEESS

The target in series [1] is T1, ZTF-17 (Caenorhabditis elegans, UniProt P45972 1-705).
T1 sequence: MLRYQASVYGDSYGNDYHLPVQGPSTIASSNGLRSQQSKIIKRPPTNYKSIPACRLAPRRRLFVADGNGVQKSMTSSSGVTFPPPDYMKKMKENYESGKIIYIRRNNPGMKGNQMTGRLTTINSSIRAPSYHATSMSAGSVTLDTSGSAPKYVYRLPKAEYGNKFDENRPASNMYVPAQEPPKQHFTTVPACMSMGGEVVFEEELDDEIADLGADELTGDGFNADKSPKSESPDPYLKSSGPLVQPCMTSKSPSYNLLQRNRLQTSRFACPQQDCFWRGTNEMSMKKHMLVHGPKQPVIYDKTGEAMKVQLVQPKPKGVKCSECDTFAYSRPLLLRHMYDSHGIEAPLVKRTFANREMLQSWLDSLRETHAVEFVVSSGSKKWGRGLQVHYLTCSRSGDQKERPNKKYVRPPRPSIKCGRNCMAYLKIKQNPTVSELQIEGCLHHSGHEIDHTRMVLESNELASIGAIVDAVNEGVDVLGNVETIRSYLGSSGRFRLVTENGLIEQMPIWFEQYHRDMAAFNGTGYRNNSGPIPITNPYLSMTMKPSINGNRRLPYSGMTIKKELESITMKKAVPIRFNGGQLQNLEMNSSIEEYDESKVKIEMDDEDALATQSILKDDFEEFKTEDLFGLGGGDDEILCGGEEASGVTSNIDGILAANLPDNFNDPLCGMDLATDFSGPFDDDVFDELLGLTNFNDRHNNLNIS
The experiment in a line: EMSA; 50 mM KCl, 20 mM HEPES pH 7.9, 0.2 mM EDTA, 0.5 mM DTT, 3 mM MgCl2, 1 ug poly(dI-dC), 0.5 ug/ul BSA, 0-800 ng protein, 20 ul, 20 min on ice (4 C). The note with it: protein: recombinant; tags: N-terminal 6His (pQE-80L); label: 32P; blunt.

The target in series [2] is T1, ZTF-17. The experiment in a line: EMSA; also competes vs YF4-2; 50 mM KCl, 20 mM HEPES pH 7.9, 0.2 mM EDTA, 0.5 mM DTT, 3 mM MgCl2, 1 ug poly(dI-dC), 0.5 ug/ul BSA, 0-800 ng protein, 20 ul, 20 min on ice (4 C). The note with it: protein: recombinant; tags: N-terminal 6His (pQE-80L); label: 32P (probe); blunt.
Series [3] has as its target T1, ZTF-17. Briefly: competition; cold competitor vs YF4-2; 50 mM KCl, 20 mM HEPES pH 7.9, 0.2 mM EDTA, 0.5 mM DTT, 3 mM MgCl2, 1 ug poly(dI-dC), 0.5 ug/ul BSA, 0-800 ng protein, 20 ul, 20 min on ice (4 C). The note with it: protein: recombinant; tags: N-terminal 6His (pQE-80L); blunt.

B1: ECR2 (dsDNA)
DNA 1: CCCATATGCTTCCTGCTGTGTGTGGCACGAGCGCCAATAA
DNA 2: TTATTGGCGCTCGTGCCACACACAGCAGGAAGCATATGGG
B1: the binding result with ALR-1 is given as “binds”.

B2: YF4-2 (dsDNA)
DNA 1: GAGCAAGAGATGTGCTCTCGGCTCCACGAACCTCTTTGATCTATGCCGACAGTGGGGGAGATTGGAGAAGAAGCATGCTCCACCCTTCACGTGTATCAGTACGTCTGCGTCTTCTTGTGCGTGCCGCCCGGATTAGAAGACATGAAGTGGGAGGGCGATAGAGGAAATTCCGATGGCAATACCAAC
DNA 2: GTTGGTATTGCCATCGGAATTTCCTCTATCGCCCTCCCACTTCATGTCTTCTAATCCGGGCGGCACGCACAAGAAGACGCAGACGTACTGATACACGTGAAGGGTGGAGCATGCTTCTTCTCCAATCTCCCCCACTGTCGGCATAGATCAAAGAGGTTCGTGGAGCCGAGAGCACATCTCTTGCTC
For the molecule B2, the binding result with ZTF-17 [1] is “binds”.

B3: YF4-4 (dsDNA)
DNA 1: GCTCCACCCTTCACGTGTATCAGTACGTCTGCGTCTTCTTGTGCGTGCCGCCCGGATTAGAAGACATGAAGTGGGAGGGCGATAGAGGAAATTCCGATGGCAATACCAAC
DNA 2: GTTGGTATTGCCATCGGAATTTCCTCTATCGCCCTCCCACTTCATGTCTTCTAATCCGGGCGGCACGCACAAGAAGACGCAGACGTACTGATACACGTGAAGGGTGGAGC
Regarding B3, the binding result with ZTF-17 [2] is listed as “binds”.

B4: YF4-3 (dsDNA)
DNA 1: GAGCAAGAGATGTGCTCTCGGCTCCACGAACCTCTTTGATCTATGCCGACAGTGGGGGAGATTGGAGAAGAAGCATGCTCCACCCTTCACGTGTATCAGTACG
DNA 2: CGTACTGATACACGTGAAGGGTGGAGCATGCTTCTTCTCCAATCTCCCCCACTGTCGGCATAGATCAAAGAGGTTCGTGGAGCCGAGAGCACATCTCTTGCTC
B4: in the series with ZTF-17 [3], the binding result is “no binding”.
